Here are results for 18 molecules from US20200308270A1 (Zymeworks, published 2020).

Where a chain is given by its changes, count along the chain named. A value given as a limit tells only on which side of the number the result lay.

Test [1] concerns the target T1, recombinant human HER3 (human, UniProt P21860 20-643).
T1 construct: Bought reagent
The experiment in a line: SPR (ProteOn), Mab captured via anti-human Fc, HER3 analyte.
Description: HER3 affinity determination in Mabs was carried out as follows. The screening of Mabs for binding to HER3 antigen occurred in two steps: an indirect capture of Mabs onto the anti-human Fc-specific polyclonal antibody surface, followed by the injection of five concentrations of HER3. The anti-human Fc surface was prepared on a GLC sensorchip by amine coupling. GLC sensorchip surface was activated by a 1:10 dilution of the standard BioRad sNHS/EDC solutions injected for 140s at 100 pt/min in the analyte (horizontal) direction. Immediately after the activation, 25 microg/mL solution of anti-human Fc in 10 mM NaOAc pH 4.5 was injected in the ligand (vertical) direction at a flow rate of 25 microL/min for 240s until approximately 3000 resonance units (RUs) were immobilized. Remaining active groups were quenched by a 140s injection of 1M ethanolamine at 100 μL/min also in the analyte direction. Mabs for analysis were indirectly captured onto the anti-Fc surface by injecting 20 microg/mL solutions in the ligand (vertical) direction at a flow rate of 25 microL/min for 240s. HER3 was subsequently injected in the analyte (horizontal) direction. Firstly, two buffer injections for 30s at 100 microL/min in the analyte (horizontal) direction were used to stabilize the baseline. […] Sensorgrams were aligned and double-referenced using the buffer blank injection and interspots, and the resulting sensorgrams were analyzed using ProteOn Manager software v3.1. The double-referenced sensorgrams were fit to the Langmuir binding model.

In test [2] the target is human recombinant FcgammaR receptor CD16aV (human, UniProt P08637 17-208, limits assumed). Put plainly: SPR (ProteOn), Mab captured via anti-human Fc, FcgammaR analyte.
Description: (§1) Goat polyclonal anti-human Fc antibody was purchased from Jackson Immuno Research Laboratories Inc. (West Grove, Pa.). […] Human recombinant FcγR receptors: CD16aV, CD32bF, CD32aR, and CD32aH were expressed as constructs containing a His10-tag at the C-terminus and purified by Ni-affinity chromatography followed by His-tag removal and SEC purification.
(§2) FcγR affinity determination was carried out as follows. The screening of Mabs for binding to various FcγR receptors occurred in two steps: an indirect capture of Mab samples onto the anti-human Fc-specific polyclonal antibody surface, followed by the injection of five concentrations of each of FcγR receptors. The anti-human Fc surface was prepared on a GLC sensorchip by amine coupling. GLC sensorchip surface was activated by a 1:10 dilution of the standard BioRad sNHS/EDC solutions injected for 140s at 100 μL/min in the analyte (horizontal) direction. Immediately after the activation, 25 microg/mL solution of anti-human Fc in 10 mM NaOAc pH 4.5 was injected in the analyte direction at a flow rate of 25 microL/min for 240s until approximately 4500 or 2500 resonance units (RUs) were immobilized. Remaining active groups were quenched by a 300s injection of 1M ethanolamine at 30 μL/min also in the analyte direction. Mabs for analysis were indirectly captured onto the anti-human Fc surface by injecting 10 microg/ml solutions in the ligand (vertical) direction at a flow rate of 25 microL/min for 240s. Each of the FcγR receptors was subsequently injected in the analyte (horizontal) direction. Firstly, two buffer injections for 30s at 100 microL/min in the analyte (horizontal) direction were used to stabilize the baseline. Five concentrations of a three-fold dilution series of each of the four FcγR receptors starting at 10 μM with a blank buffer control were then simultaneously injected at 50 microL/min for 120 s with a 3 minute dissociation phase, resulting in a set of binding sensorgrams with a buffer reference. […] Sensorgrams were aligned and double-referenced using the buffer blank injection and interspots, and the resulting sensorgrams were analyzed using ProteOn Manager software v3.1.
The target of test [3] is T2, human recombinant FcgammaR receptor CD32aR (human, UniProt P12318 34-217, limits assumed).
T2 sequence (looked up): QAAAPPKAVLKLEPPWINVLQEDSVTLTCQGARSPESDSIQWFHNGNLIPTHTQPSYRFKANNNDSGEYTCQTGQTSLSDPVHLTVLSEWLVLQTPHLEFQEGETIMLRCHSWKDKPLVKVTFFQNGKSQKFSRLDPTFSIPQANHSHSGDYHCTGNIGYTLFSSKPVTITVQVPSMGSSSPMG
The test is described as above.
Description: as §1, §2

The target in the next test is T3, human recombinant FcRn (human, UniProt P55899 24-297; P61769 21-119, limits assumed).
T3 construct: also called neonatal receptor
Put plainly: SPR (ProteOn), FcRn immobilized, Mab analyte, pH 5.8.

Test [4] addresses T1, recombinant human HER3. The experiment in a line: SPR. On the technique in general: Surface plasmon resonance follows binding to a sensor surface in real time, without labels.
In test [5] the target is T4, recombinant human sFas receptor (human, UniProt P25445 17-173, limits assumed).
T4 construct: Bought reagent
T4 sequence (looked up): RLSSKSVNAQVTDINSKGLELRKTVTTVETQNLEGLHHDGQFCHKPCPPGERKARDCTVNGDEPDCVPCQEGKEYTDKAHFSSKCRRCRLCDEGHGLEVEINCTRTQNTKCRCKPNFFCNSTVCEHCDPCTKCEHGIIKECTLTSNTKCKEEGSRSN
Put plainly: SPR (Biacore T200), Fas immobilized, Fab analyte.
Description: Fas affinity determination was carried out as follows. Fas was diluted in 10 mM acetate buffer pH 5.5 and directly immobilized via amine coupling onto a CMS Series S sensor chip. […] The reference flow cell was left empty (ethanolamine blocked) to use as a blank control. Fabs were injected over both the ethanolamine-blocked reference surface and the Fas surface for kinetic analysis using single cycle kinetics. […] Fas surfaces were regenerated using 2 cycles of 10 mM glycine pH 1.5 for 120 s at 30 pt/min to prepare the surfaces for the next injection cycle. At least two mock-buffer injections were performed for each analyte injection to be used for referencing. The resulting single cycle kinetics sensorgrams were analyzed using Biacore T200 BiaEvaluation software version 3.0 and fit to the 1:1 binding model.

The next test concerns the target T5, recombinant human IL-17A (human, UniProt Q16552 20-155, limits assumed).
T5 construct: Bought reagent
The experiment in a line: SPR (ProteOn), IL-17A immobilized, Mab analyte.

Chain of human recombinant FcgammaR receptor CD16aV (P08637 17-208 F176V limits assumed): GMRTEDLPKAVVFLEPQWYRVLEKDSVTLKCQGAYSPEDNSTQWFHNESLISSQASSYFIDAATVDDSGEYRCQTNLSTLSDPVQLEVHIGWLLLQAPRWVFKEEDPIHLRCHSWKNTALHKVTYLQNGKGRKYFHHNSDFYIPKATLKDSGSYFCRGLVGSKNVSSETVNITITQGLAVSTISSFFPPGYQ
T3 sequence (P55899 24-297 limits assumed, chain 1 of 2): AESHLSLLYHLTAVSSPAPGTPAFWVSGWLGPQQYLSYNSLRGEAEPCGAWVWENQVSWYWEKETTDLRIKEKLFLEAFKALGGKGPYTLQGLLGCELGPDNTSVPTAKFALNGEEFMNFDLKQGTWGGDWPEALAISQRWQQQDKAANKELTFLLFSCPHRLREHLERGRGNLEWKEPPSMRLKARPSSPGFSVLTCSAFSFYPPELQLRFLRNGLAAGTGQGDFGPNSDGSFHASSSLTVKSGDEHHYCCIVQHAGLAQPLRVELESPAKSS
T3 sequence (P61769 21-119 limits assumed, chain 2 of 2): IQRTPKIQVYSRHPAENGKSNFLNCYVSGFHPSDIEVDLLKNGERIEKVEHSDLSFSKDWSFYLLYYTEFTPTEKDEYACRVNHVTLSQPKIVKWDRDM
T5 sequence (Q16552 20-155 limits assumed): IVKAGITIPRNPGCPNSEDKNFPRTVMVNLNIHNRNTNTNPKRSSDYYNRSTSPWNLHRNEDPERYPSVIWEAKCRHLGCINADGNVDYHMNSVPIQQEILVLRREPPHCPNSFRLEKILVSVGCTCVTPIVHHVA
Description for human recombinant FcRn: FcRn affinity determination was carried out as follows. FcRn surface was generated using a GLC sensorchip activated by a 1:10 dilution of the standard BioRad sNHS/EDC solutions injected for 140s at 100 μL/min in the ligand (vertical) direction. Immediately after the activation, 10 microg/mL solution of FcRn in 10 mM NaOAc pH 4.5 was injected in the ligand (vertical) direction at a flow rate of 25 microL/min for 120s until approximately 2000 resonance units (RUs) were immobilized. Remaining active groups were quenched by a 140s injection of 1M ethanolamine at 30 μL/min also in the ligand direction. The running buffer used on the FcRn surface was PBST pH 5.8. The screening of the Mabs for binding to FcRn was performed by injection of purified Mabs in the analyte (horizontal) direction. Firstly, two buffer injections for 30s at 100 microL/min in the analyte (horizontal) direction were used to stabilize the baseline. Five concentrations of a three-fold dilution series of each Mab starting at 100 nM with a blank buffer control were simultaneously injected at 50 microL/min for 120 s with a 10 minute dissociation phase, resulting in a set of binding sensorgrams with a buffer reference. […] Sensorgrams were aligned and double-referenced using the buffer blank injection and interspots, and the resulting sensorgrams were analyzed using ProteOn Manager software v3.1. The double-referenced sensorgrams were fit to the Langmuir binding model.
Description for recombinant human IL-17A: IL-17 affinity determination was carried out as follows. The IL-17A surface was generated using a GLC sensorchip activated by a 1:10 dilution of the standard BioRad sNHS/EDC solutions injected for 140s at 100 pt/min in the ligand (vertical) direction. Immediately after the activation, 1 to 4 microg/mL solution of IL-17A in 10 mM NaOAc pH 4.5 was injected in the ligand (vertical) direction at a flow rate of 25 or 100 microL/min until approximately 75-200 resonance units (RUs) were immobilized. Remaining active groups were quenched by a 140s injection of 1M ethanolamine at 100 μL/min also in the ligand direction. […] Firstly, two buffer injections for 30s at 100 microL/min in the analyte (horizontal) direction were used to stabilize the baseline. […] Sensorgrams were aligned and double-referenced using the buffer blank injection and interspots, and the resulting sensorgrams were analyzed using ProteOn Manager software v3.1. The double-referenced sensorgrams were fit to the Langmuir binding model.

B1: H3 wild-type lambda Mab (antibody, human IgG1, lambda)
heavy: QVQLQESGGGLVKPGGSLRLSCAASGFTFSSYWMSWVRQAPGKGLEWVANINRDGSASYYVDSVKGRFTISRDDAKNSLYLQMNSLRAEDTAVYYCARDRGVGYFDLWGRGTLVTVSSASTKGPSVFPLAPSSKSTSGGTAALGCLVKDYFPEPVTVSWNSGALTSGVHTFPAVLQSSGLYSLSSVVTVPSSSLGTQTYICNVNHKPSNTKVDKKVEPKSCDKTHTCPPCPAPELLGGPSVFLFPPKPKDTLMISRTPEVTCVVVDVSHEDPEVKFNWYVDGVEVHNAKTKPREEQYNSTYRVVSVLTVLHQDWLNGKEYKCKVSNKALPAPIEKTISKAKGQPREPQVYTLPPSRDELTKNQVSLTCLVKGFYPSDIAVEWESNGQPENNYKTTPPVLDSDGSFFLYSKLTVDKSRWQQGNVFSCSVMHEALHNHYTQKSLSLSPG
light: QSALTQPASVSGSPGQSITISCTGTSSDVGGYNFVSWYQQHPGKAPKLMIYDVSDRPSGVSDRFSGSKSGNTASLIISGLQADDEADYYCSSYGSSSTHVIFGGGTKVTVLGQPKAAPSVTLFPPSSEELQANKATLVCLISDFYPGAVTVAWKADSSPVKAGVETTTPSKQSNNKYAASSYLSLTPEQWKSHRSYSCQVTHEGSTVEKTVAPTECS
notes: IgG1 Mab format; also called WT
For B1, the Kd in the test with recombinant human HER3 [1] is 85 nM; in test [2] it was 1100 nM; in test [3], 3400 nM; with human recombinant FcRn it was 48.6 nM.

B2: H3 designed Vlambda-Ckappa chimeric Mab, design 37 (E83A_D85T) (antibody, human IgG1, kappa, name in Kabat numbering)
heavy: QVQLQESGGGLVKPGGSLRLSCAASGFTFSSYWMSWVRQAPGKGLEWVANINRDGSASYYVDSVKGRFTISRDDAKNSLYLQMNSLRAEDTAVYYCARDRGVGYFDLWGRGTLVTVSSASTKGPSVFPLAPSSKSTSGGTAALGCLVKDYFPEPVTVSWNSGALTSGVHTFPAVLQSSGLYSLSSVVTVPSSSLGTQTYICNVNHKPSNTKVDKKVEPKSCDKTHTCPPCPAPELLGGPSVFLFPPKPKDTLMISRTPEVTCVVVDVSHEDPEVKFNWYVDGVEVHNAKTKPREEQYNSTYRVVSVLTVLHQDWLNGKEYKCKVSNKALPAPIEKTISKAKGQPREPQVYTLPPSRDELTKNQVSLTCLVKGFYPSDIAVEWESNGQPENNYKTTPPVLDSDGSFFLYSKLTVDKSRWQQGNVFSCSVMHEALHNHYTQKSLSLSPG
light: QSALTQPASVSGSPGQSITISCTGTSSDVGGYNFVSWYQQHPGKAPKLMIYDVSDRPSGVSDRFSGSKSGNTASLIISGLQADDAATYYCSSYGSSSTHVIFGGGTKVTVLRTVAAPSVFIFPPSDEQLKSGTASVVCLLNNFYPREAKVQWKVDNALQSGNSQESVTEQDSKDSTYSLSSTLTLSKADYEKHKVYACEVTHQGLSSPVTKSFNRGEC
notes: IgG1 Mab format
B2: the Kd with recombinant human HER3 [1] is 67 nM; in test [2] it was 1300 nM; in test [3], 3400 nM; in the test with human recombinant FcRn, 80.2 nM.

B3: H3 designed Vlambda-Ckappa chimeric Mab, design 26 (E83V_D85T) (antibody, human IgG1, kappa, name in Kabat numbering)
heavy: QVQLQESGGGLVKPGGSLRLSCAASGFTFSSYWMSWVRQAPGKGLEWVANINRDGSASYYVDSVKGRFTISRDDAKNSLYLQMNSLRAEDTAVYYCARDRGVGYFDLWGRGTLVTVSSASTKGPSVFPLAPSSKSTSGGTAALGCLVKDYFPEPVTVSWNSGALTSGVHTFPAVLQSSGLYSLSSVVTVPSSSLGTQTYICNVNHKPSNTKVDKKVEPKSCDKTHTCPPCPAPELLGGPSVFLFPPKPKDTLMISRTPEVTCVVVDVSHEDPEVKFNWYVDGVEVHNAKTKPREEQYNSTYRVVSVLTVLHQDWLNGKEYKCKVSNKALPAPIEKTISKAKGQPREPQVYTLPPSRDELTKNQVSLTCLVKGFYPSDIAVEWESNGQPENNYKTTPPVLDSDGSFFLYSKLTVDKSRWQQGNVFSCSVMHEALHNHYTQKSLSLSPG
light: B2 light with A85V
notes: IgG1 Mab format
Consider B3, for which the Kd with recombinant human HER3 [1] is 56 nM.

B4: H3 designed Vlambda-Ckappa chimeric Mab, design 39 (E83A_D85T_T105E_V106I) (antibody, human IgG1, kappa, name in Kabat numbering)
heavy: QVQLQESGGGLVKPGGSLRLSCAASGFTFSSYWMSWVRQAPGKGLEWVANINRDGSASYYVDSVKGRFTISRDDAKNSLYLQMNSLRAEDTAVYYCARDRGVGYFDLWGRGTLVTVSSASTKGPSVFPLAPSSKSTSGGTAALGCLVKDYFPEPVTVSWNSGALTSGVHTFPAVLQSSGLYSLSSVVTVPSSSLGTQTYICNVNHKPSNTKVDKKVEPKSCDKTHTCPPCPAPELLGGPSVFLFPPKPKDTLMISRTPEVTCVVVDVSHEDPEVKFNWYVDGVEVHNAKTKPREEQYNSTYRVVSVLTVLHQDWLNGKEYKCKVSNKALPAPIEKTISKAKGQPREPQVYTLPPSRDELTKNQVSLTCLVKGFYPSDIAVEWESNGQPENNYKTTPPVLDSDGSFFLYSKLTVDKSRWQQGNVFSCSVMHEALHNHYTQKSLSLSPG
light: B2 light with T109E, V110I
notes: IgG1 Mab format
Turning to B4, the Kd with recombinant human HER3 [1] came out at 61 nM; in test [2] it was 1400 nM; in test [3] it was 3100 nM; with human recombinant FcRn, 96.7 nM.

B5: H3 designed Vlambda-Ckappa chimeric Mab, design 34 (E83I_D85T_T105E_V106I) (antibody, human IgG1, kappa, name in Kabat numbering)
heavy: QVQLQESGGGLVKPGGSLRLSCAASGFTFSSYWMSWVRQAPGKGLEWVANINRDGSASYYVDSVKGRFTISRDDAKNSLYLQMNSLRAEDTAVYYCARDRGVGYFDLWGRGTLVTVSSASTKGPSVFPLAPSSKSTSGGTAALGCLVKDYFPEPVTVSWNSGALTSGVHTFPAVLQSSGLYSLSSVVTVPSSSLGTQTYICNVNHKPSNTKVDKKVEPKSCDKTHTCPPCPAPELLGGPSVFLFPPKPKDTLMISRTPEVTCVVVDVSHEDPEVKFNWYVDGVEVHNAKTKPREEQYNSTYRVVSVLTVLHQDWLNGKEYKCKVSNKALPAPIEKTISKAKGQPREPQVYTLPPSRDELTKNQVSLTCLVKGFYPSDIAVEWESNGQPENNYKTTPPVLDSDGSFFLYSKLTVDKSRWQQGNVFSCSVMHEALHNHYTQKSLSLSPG
light: B2 light with A85I, T109E, V110I
notes: IgG1 Mab format
Take B5: in the test with recombinant human HER3 [1], the dissociation constant Kd came to 60 nM.

B6: H3 Vlambda-Ckappa chimeric Mab (antibody, human IgG1, kappa)
heavy: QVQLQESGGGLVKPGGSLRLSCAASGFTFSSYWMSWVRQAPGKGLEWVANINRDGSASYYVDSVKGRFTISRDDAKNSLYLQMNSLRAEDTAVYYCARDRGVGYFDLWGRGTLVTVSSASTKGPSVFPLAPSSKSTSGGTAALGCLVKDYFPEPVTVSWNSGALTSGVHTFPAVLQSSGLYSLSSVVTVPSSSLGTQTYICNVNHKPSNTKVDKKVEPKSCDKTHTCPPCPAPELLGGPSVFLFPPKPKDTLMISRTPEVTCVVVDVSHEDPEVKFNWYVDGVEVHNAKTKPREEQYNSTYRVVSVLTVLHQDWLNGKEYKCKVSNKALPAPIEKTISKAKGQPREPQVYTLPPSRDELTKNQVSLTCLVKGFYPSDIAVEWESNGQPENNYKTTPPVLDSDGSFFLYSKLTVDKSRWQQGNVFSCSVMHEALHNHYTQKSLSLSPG
light: B2 light with A85E, T87D
notes: IgG1 Mab format; chimeric light chain without stabilizing substitutions; also called chimera
For B6, the “fold difference of KD against the wild-type lambda Mab control” value with recombinant human HER3 [4] is not above 1.5 fold. The Kd with recombinant human HER3 [1] is 63 nM; in test [2] it was 1200 nM; in test [3] it was 4100 nM; with human recombinant FcRn, 74.6 nM.

B7: H3 designed Vlambda-Ckappa chimeric Mab, design 32 (E83I_D85T) (antibody, human IgG1, kappa, name in Kabat numbering)
heavy: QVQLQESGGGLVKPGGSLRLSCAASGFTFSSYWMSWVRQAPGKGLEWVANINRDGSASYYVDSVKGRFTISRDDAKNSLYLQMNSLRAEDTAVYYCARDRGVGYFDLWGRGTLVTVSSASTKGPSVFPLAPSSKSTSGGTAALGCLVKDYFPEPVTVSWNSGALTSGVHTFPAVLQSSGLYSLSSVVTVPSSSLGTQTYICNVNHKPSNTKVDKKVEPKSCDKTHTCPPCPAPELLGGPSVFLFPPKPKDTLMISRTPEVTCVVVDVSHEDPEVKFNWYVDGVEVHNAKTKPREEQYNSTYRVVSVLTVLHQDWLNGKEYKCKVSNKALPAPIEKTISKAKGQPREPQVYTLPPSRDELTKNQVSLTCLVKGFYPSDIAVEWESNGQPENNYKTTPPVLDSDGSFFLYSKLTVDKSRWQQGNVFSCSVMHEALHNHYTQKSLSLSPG
light: B2 light with A85I
notes: IgG1 Mab format
Regarding B7, the Kd with recombinant human HER3 [1] worked out at 67 nM.

B8: H3 designed Vlambda-Ckappa chimeric Mab, design 29 (E83V_D85T_T105E_V106I) (antibody, human IgG1, kappa, name in Kabat numbering)
heavy: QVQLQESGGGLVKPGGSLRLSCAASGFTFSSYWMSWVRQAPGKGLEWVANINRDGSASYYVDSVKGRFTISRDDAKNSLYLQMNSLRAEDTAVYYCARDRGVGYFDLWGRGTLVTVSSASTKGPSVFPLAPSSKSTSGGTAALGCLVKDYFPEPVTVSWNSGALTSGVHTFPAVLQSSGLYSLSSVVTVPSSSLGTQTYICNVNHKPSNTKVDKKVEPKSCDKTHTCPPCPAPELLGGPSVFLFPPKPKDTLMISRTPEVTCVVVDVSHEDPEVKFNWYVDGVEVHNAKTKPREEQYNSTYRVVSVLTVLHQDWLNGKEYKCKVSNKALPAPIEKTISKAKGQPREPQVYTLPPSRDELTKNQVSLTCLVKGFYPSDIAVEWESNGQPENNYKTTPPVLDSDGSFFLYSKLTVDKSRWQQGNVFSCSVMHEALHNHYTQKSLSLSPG
light: B2 light with A85V, T109E, V110I
notes: IgG1 Mab format
As to B8, the Kd in the test with recombinant human HER3 [1] is 64 nM; in test [2], 1100 nM; in test [3], 4900 nM; with human recombinant FcRn, 86.1 nM.

B9: H3 designed Vlambda-Ckappa chimeric Mab, design 18 (E83F_D85T_T105E) (antibody, human IgG1, kappa, name in Kabat numbering, V domains shown)
VH: QVQLQESGGGLVKPGGSLRLSCAASGFTFSSYWMSWVRQAPGKGLEWVANINRDGSASYYVDSVKGRFTISRDDAKNSLYLQMNSLRAEDTAVYYCARDRGVGYFDLWGRGTLVTVSS
VL: QSALTQPASVSGSPGQSITISCTGTSSDVGGYNFVSWYQQHPGKAPKLMIYDVSDRPSGVSDRFSGSKSGNTASLIISGLQADDFATYYCSSYGSSSTHVIFGGGTKVEVLR
notes: IgG1 Mab format
For the molecule B9, in the test with recombinant human HER3 [1], the dissociation constant Kd was 66 nM.

B10: EP6b_B01 Vlambda-Ckappa chimeric Fab (Fab, V domains shown)
VH: QLQLQESGPGLVKPSETLSLTCTVSGASISANSYYGVWVRQSPGKGLEWVGSIAYRGNSNSGSTYYNPSLKSRATVSVDSSKNQVSLRLTSVTAADTALYYCARRQLLDDGTGYQWAAFDVWGQGTMVTVSS
VL: QSVLTQPPSVSEAPRQTVTISCSGNSSNIGRYPVNWYQQLPGKAPKLLIYSDNLRFSGVPDRFSGSKSGTTASLAIRDLLSEDEADYYCSTWDDTLEGWVFGGGTKVTVLR
notes: Parent chimeric Fab without stabilizing substitutions; also called chimera; VL-CK chimeric Fab
B10: the dissociation constant (Kd) in test [5] was 0.0512 nM.

B11: EP6b_B01 wild-type lambda Fab (Fab, V domains shown)
VH: B10 VH
VL: B10 VL with R111G
notes: Truncated heavy chain (VH-CH1-upper IgG1 hinge, no His tag) and wild-type lambda light chain; also called WT
Take B11: in test [5], the dissociation constant (Kd) was 0.0546 nM.

B12: EP6b_B01 designed Vlambda-Ckappa chimeric Fab, design 37 (E83A_D85T) (Fab, name in Kabat numbering, V domains shown)
VH: B10 VH
VL: B10 VL with E84A, D86T
For the molecule B12, the equilibrium dissociation constant (Kd) in test [5] was 0.0492 nM.

B13: EP6b_B01 designed Vlambda-Ckappa chimeric Fab, design 32 (E83I_D85T) (Fab, name in Kabat numbering, V domains shown)
VH: B10 VH
VL: B10 VL with E84I, D86T
In the case of B13, the Kd in test [5] is 0.0471 nM.

B14: EP6b_B01 designed Vlambda-Ckappa chimeric Fab, design 34 (E83I_D85T_T105E_V106I) (Fab, name in Kabat numbering, V domains shown)
VH: B10 VH
VL: B10 VL with E84I, D86T, T108E, V109I
Regarding B14, in test [5], the dissociation constant (Kd) is 0.0484 nM.

B15: EP6b_B01 designed Vlambda-Ckappa chimeric Fab, design 29 (E83V_D85T_T105E_V106I) (Fab, name in Kabat numbering, V domains shown)
VH: B10 VH
VL: B10 VL with E84V, D86T, T108E, V109I
For B15, the dissociation constant Kd in test [5] came out at 0.0479 nM.

B16: EP6b_B01 designed Vlambda-Ckappa chimeric Fab, design 26 (E83V_D85T) (Fab, name in Kabat numbering, V domains shown)
VH: B10 VH
VL: B10 VL with E84V, D86T
For B16, in test [5], the Kd was 0.0486 nM.

B17: EP6b_B01 designed Vlambda-Ckappa chimeric Fab, design 18 (E83F_D85T_T105E) (Fab, name in Kabat numbering, V domains shown)
VH: B10 VH
VL: B10 VL with E84F, D86T, T108E
As to B17, in test [5], the equilibrium dissociation constant (Kd) stood at 0.0449 nM.

B18: CAT-2200 designed Vlambda-Ckappa chimeric Mab, design 29 (E83V_D85T_T105E_V106I) (antibody, human IgG1, kappa)
heavy: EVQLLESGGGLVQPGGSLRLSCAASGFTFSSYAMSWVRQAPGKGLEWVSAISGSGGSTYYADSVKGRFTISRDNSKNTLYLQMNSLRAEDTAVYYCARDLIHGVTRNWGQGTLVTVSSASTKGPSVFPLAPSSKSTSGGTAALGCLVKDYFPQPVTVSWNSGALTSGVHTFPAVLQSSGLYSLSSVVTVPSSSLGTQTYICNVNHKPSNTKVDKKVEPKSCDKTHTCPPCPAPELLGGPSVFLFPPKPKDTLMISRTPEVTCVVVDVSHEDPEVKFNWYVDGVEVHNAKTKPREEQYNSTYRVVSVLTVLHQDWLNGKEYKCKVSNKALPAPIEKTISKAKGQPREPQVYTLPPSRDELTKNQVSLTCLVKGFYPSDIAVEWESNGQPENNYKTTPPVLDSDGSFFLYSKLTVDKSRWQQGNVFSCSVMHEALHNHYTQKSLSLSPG
light: NFMLTQPHSVSESPGKTVTISCTRSSGSLANYYVQWYQQRPGSSPTIVIFANNQRPSGVPDRFSGSIDSSSNSASLTISGLKTEDVATYYCQTYDPYSVVFGGGTKLEILRTVAAPSVFIFPPSDEQLKSGTASVVCLLNNFYPREAKVQWKVDNALQSGNSQESVTEQDSKDSTYSLSSTLTLSKADYEKHKVYACEVTHQGLSSPVTKSFNRGEC
notes: IgG1 Mab format
B18: the equilibrium dissociation constant (Kd) is 0.049 nM in the test with recombinant human IL-17A, 1300 nM in test [2], 2300 nM in test [3] and 27.9 nM in the test with human recombinant FcRn.

The term Kd denotes the free concentration of one partner at which half of the binding sites on the other are occupied at equilibrium, for simple one-to-one binding.
